Laboratory results from patent US20060188956A1, “Relaxin3-gpcr135 complexes and their production and use” (priority 2003, published 2006).
Blank lines part the entries; values can stand above or below the compound they belong to.

Columns and labels:
[1] = molecular target: T1, mouse GPCR135 (Mus musculus, UniProt Q8BGE9); test: Radioligand binding assay in transfected COS-7 cells; conditions: COS-7 cells transfected with mouse GPCR135; competitor 1 μM unlabeled relaxin3
T1 construct: Mouse GPCR135 coding region was PCR amplified from mouse genomic DNA; expressed in transfected cells; host or cells: COS-7 (ATCC CRL-1651), transient
T1 sequence (Q8BGE9 1-472): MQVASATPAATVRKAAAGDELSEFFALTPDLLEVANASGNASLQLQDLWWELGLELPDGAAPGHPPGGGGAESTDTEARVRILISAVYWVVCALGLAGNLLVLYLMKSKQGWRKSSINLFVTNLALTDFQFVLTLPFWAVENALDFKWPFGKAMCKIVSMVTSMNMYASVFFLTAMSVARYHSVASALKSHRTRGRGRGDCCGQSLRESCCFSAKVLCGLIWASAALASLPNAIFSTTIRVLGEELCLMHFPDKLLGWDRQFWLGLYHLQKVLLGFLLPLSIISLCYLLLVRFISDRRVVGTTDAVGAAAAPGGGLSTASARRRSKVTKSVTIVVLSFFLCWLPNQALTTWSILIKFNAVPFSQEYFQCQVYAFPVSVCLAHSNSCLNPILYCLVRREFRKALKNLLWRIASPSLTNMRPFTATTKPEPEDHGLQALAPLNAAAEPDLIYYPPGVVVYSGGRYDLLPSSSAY
Description: (§1) COS7 cells, either untransfected (NC) or transfected with pcDNA3.1 (the vector control), human GPCR135 (hGPCR135), mouse GPCR135 (mGPCR135), rat GPCR135 long form (rGPCR135L), and rat GPCR135 short form (rGPCR135s) respectively, were used for binding assays using ^125I-labeled human relaxin3 either in the present (“Competition”) or absence (“Total Binding”) of 1 µM of unlabeled human relaxin3 as the competitor.
(§2) COS-7 cells in 6-well tissue culture plates were transfected by GPCR135 expressing plasmid using LipofectAmine. Two days after transfection, cells were washed with binding buffer: DMEM plus 50 mM Hepes, pH 7.2 and 1% BSA. ^125I-label human relaxin3 was added to each well in 1 ml of binding buffer at presence or absence 1 μM of unlabeled relaxin as competitor. The binding assays were carried out at room temperature for one hour and the unbound ligand was washed away by ice-cold PBS. The bound ^125I-relaxin3 was counted in a gamma counter.

[2] = molecular target: T2, GPCR135 (Homo sapiens, UniProt Q9NSD7); test: as above; conditions: COS-7 cells transfected with human GPCR135; competitor 1 μM unlabeled relaxin3
T2 sequence (Q9NSD7 1-469): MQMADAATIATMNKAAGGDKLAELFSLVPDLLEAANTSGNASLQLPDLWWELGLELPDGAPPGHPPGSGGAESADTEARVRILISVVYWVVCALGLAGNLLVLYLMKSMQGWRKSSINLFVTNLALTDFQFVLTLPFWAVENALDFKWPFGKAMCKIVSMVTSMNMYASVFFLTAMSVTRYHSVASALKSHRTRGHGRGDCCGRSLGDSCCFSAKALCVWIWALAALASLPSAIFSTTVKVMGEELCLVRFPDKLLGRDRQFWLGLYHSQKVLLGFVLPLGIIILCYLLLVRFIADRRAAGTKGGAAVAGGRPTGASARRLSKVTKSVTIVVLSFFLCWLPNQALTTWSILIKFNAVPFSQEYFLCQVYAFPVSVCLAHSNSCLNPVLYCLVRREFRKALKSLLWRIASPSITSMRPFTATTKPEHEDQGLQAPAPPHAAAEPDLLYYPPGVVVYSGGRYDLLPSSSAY
Description: as §1, §2

[3] = tested on: rat GPCR135; test: as above; conditions: COS-7 cells transfected with rat GPCR135 (long and short form); competitor 1 μM unlabeled relaxin3
Sequence of rat GPCR135 (as listed by the source): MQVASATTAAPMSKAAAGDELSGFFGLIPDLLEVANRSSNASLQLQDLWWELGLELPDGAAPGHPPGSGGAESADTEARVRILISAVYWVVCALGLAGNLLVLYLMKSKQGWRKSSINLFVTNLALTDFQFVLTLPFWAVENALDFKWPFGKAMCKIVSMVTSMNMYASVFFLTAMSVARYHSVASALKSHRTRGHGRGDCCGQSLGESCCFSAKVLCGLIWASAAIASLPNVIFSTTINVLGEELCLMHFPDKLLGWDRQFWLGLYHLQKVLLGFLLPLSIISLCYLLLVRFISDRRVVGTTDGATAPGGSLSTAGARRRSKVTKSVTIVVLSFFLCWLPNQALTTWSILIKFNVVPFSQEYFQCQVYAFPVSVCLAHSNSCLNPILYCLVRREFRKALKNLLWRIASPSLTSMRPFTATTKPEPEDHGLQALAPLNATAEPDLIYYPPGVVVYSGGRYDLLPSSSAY
Description: as §1, §2

[4] = molecular target: T2, GPCR135; conditions: transient expression in Cos-1 cells; cited from earlier work
[5] = molecular target: T2, GPCR135; test: Intracellular cAMP accumulation assay in CHO-K1 cells; assay type: cell-based; parameters: primers complementary to the putative translation start and stop sites of the GPCR135 open reading frame; expressed in transfected cells; host or cells: CHO-K1 (transient, pCIneo vector); isolated cell membranes
Description: CHO-K1 cells stably expressing human GPCR135 (GPCR135) and un-transfected CHO-K1 cells (Control) were used for cAMP accumulation assays. Cells were treated with different stimulants as indicated. cAMP accumulated in the cells was extracted by HCl and the concentration of cAMP was measured by a ELISA kit (NEN) using ^125I-labeled cAMP and Flash plates.
CHO-K1 cells stably expressing human GPCR135 were established by transfection of GPCR135 expressing plasmid into CHO-K1 (ATCC# CCL-61) cells and culturing the transfected cells under selection of G418 (400 mg/L). The receptor expressing cells were seeded in 96-well plates at a cell density of 30,000 cells/well. Twenty-four hours later, cell culture medium was replaced with DMEM-F12 plus 2 mM IBMX (sigma). A different test compound for cAMP stimulation was added to each well. The reactions were incubated at room temperature for 20 min. Twenty micro-liters of 0.5 N HCl was added to each well to stop the reaction and extract the accumulated cAMP. The cAMP concentration was measured using a cAMP ELISA kit (NEN).

[6] = molecular target: T2, GPCR135; test: GTPγS binding assay with GPCR135 expressing cell membranes; assay type: biochemical; parameters: primers complementary to the putative translation start and stop sites of the GPCR135 open reading frame; expressed in transfected cells; host or cells: CHO-K1 (transient, pCIneo vector); isolated cell membranes; conditions: GPCR135 expressing cell membrane
Description: Frozen rat brains (5 g) were homogenized at −30° C. in 40 ml ethanol/HCl (ethanol to 0.8M HCl ratio at 3:1). The homogenate was extracted at 4° C. for 2 hr and then centrifuged at 4° C. at 20,000 g for 30 min. The supernatant was loaded onto a 2 ml SP-Sephadex C-25 column (Amersham), washed with 1 M acetic acid and eluted with 2 M pyridine and 1 M acetic acid. The eluted fraction was loaded onto a 6 ml C-18 BondElut column, washed with 0.1% TFA and eluted with 60% acetonitrile and 0.1% TFA. The eluted peptides were lyophilized, reconstituted in water, and tested for GPCR135 ligand activity using GTPγS binding assay as described in Example 5.
The expression vector was transfected into COS-7 cells using LipofectAmine (Invitrogen). Three days after the transfection, the supernatants of the transfected cells were collected, the pH was adjusted to 3.0 and loaded onto a Sephadex C-25 cation exchange column. The column was washed with 1 M acetic acid and eluted with 2 M pyridine and 1 M acetic acid. The eluted proteins were loaded on a C-18 BondElut column, washed with 0.1% TFA, and eluted with 60% acetonitrile and 0.1% TFA. […]
GPCR135 expression vector was transfected into CHO-K1 cells using Lipofectamine (Invitrogen). […] Microscint-40 (Packard) was added to each well and the plate was counted on a top counter (TopCount NTX, Packard).

[7] = molecular target: T3, LGR7 (Homo sapiens, UniProt Q9HBX9); conditions: cited from earlier work
T3 sequence (Q9HBX9 1-757): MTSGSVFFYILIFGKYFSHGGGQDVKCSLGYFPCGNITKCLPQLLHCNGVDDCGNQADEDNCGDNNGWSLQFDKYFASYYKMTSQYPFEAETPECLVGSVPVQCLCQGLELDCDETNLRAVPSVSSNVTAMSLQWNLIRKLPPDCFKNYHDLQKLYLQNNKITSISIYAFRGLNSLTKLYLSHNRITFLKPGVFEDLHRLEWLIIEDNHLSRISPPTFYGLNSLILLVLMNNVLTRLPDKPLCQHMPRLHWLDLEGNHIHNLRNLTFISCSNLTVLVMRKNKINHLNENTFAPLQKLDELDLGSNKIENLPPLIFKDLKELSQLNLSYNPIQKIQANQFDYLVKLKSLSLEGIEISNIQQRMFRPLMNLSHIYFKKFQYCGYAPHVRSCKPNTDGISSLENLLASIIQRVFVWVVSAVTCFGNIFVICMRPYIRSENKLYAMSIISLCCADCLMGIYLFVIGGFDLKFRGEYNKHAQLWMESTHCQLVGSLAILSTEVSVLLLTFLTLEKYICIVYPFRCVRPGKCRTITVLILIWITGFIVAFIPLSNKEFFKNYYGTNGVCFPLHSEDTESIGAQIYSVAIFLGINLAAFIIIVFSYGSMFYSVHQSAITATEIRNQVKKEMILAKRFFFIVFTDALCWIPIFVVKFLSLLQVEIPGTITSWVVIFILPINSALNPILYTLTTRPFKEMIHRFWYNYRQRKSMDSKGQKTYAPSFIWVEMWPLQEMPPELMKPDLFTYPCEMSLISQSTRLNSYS

[8] = molecular target: T2, GPCR135; test: Ca2+ mobilization assay (FLIPR) in HEK293 cells co-expressing GPCR135 and Gqi5; assay type: cell-based; parameters: primers complementary to the putative translation start and stop sites of the GPCR135 open reading frame; expressed in transfected cells; host or cells: HEK293 (ATCC CRL-1573), transient co-transfection with Gqi5
Description: Using LipofectAmine, human embryonic kidney (HEK) 293 cells were co-transfected with a plasmid expressing GPCR135 receptor and a plasmid expressing Gqi5, a mutant G-protein that translates the activation of GPCR135 into an increased intracellular Ca^2+, or increased Ca^2+ mobilization (Conklin et al., 1993, Nature 363: 274-276). Two days after transfection, cells were detached with PBS plus 10 mM EDTA, pH 8.0. The detached cells were washed with DMEM-F12 medium (without phenol red, Invitrogen) and seeded in black poly-D lysine coated 96-well plates at a cell density of 50,000 cell/well. Calcium dye, Fluo-3 (AM) (TEFLABS, Austin, Tex.) was loaded into the cells and ligand stimulated calcium mobilization was monitored using FLIPR (Molecular Device).
HEK293 cells, untransfected (293 Control) or transfected by Gqi5 (293/Gqi5) alone or human GPCR135 (GPCR135) alone, or co-transfected by human GPCR135 and Gqi5 (GPCR135/Gqi5), were used for Ca^2+ mobilization assays under stimulation of relaxin3 as the ligand. Ligand-stimulated intracellular mobilization was monitored using FLIPR.

Compound: ^125I-relaxin3: human relaxin3 labeled with iodine-125, used as radioligand
specific binding to GPCR135 [1]: specifically binds | specific binding to GPCR135 [2]: specifically binds | specific binding to GPCR135 [3]: specifically binds

Compound: angiotensin II (DRVYIHPF; Angiotensin-2; UniProt P01019 25-32, looked up)
binding sites on GPCR135 [4]: did not produce any binding sites

intracellular concentration of cAMP ([5]; in the absence of GPCR135): increases | intracellular concentration of cAMP ([5]; in the presence of GPCR135): increases
Compound: C=C[C@@]1(C)CC(=O)[C@]2(O)[C@@]3(C)[C@@H](O)CCC(C)(C)[C@@H]3[C@H](O)[C@H](OC(C)=O)[C@@]2(C)O1 [forskalin, reference compound]

Compound: relaxin3: secreted protein consisting of relaxin3 polypeptide chains A and B linked by disulfide bridges; recombinant human, natural ligand of GPCR135
stimulation of GTPγS binding [6]: potently stimulated | forskalin-stimulated cAMP accumulation ([5]; cells expressing GPCR135): inhibits | intracellular concentration of cAMP ([5]; in the presence of GPCR135): decreases | activation of LGR7 [7]: activates | Ca2+ mobilization [8]: stimulates
